Consider one molecule from patent US20240368565A1, “COMPLEMENTATION-BASED TAGS AND REPORTERS FOR DUAL-MODALITY LABELING” (Promega Corporation, priority 2023, published 2024).

The subject of data set [1] is DualTag peptide. The data set is described as follows: BRET measurement of reporter stabilization by synthetic peptide. Format: biochemical. The following applies: room temperature, HaloTag NanoBRET 618 Ligand, versus LgHT-LgBiT alone. The procedure: FIG. 122A-C. […] After preincubation with peptide at 4° C., solutions were diluted 100-fold into buffer and incubated at room temperature. At time points, samples were added 1:1 to buffer either containing or lacking 10 nM final HaloTag® NanoBRET® 618 Ligand. For the reporter alone condition, samples were added 1:1 to a solution containing 10 nM final VS-HiBiT peptide with or without the 618 ligand in order to complement the LgBiT to create the BRET donor. After the last time point, furimazine substrate was added, followed by measuring the FIG. 122(A) luminescent donor signal using a 450 nm bandpass filter and FIG. 122(B) luminescent acceptor signal using a 600 nm longpass filter. The BRET ratio FIG. 122(C) is determined by dividing the acceptor signal by the donor signal for each sample.
A general note: Bioluminescence resonance energy transfer reports proximity on the nanometre scale.

Data set [2] deals with DualTag peptide. As to the kind of experiment: Dissociation kinetics after complementation with synthetic peptide (dilution, luminescence). The following applies: 100 nM protein, 200 nM peptide, diluted to 1 pM, furimazine.
Method: After preincubation with peptide, samples were diluted to 1 pM in either buffer alone or buffer 100 nM Tag peptide. At various time points, samples were transferred into luminescent substrate (Furimazine) to monitor dissociation of the complex.

B1: LgHT-LgBiT: tandem polypeptide reporter (Reporter) of FIG. 120, 122, 124 (protein)
chain: MFHYVDVGPRDGTPVLFLHGNPTSSYVWRNIIPHVAPTHRCIAPDLIGMGKSDKPDLGYFFDDHVRFMDAFIEALGLEEVVLVIHDWGSALGFHWAKRNPERVKGIAFMEFIRPIPTWDEWPEFARETFQAFRTTDVGRKLIIDQNVFIEGTLPMGVVRPLTEVEMDHYREPFLNPVDREPLWRFPNELPIAGEPANIVALVEEYMDWLHQSPVPKLLFWGTPGVLIPPAEAARLAKSLPNCKAVDIGPGLNLLQEDNPDLIGSEIARWLSTLEISGGSGGSGGGGSGGMVFTLEDFVGDWEQTAAYNLDQVLEQGGVSSLLQNLAVSVTPIQRIVRSGENALKIDIHVIIPYEGLSADQMAQIEEVFKVVYPVDDHHFKVILPYGTLVIDGVTPNMLNYFGRPYEGIAVFDGKKITVTGTLWNGNKIIDERLITPDGSMLFRVTINSGSGHHHHHH
Take B1: the “LgBiT luminescence and LgHT ligand binding activity over time (Raw BRET ratio)” value in the data set on DualTag peptide [1] is listed as “remain intact for longer”. The “Dissociation from the DualTag peptide” value in the data set on DualTag peptide [2] is recorded as “exceptionally slow dissociation kinetics”.
